Measured values taken from the Human Domainome abundance scans (Beltran et al. 2025).
± gives the uncertainty stated by the source.

B1: Gamma-crystallin C, residues 91 to 170; numbered along this chain, P07315 (parent)
chain: RLYEREDHKGLMMELSEDCPSIQDRFHLSEIRSLHVLEGCWVLYELPNYRGRQYLLRPQEYRRCQDWGAMDAKAGSLRRV

Variants of: B1
Assay: abundance fitness (aPCA) (normalised: wild type 0, dead -1); higher = more abundant; growth selection in yeast, the domain comes from the species named
Details: Homo sapiens

Variant | abundance fitness
E38G | -0.186 ± 0.044
E38H | -0.119 ± 0.13
E38N | 0.102 ± 0.16
E38P | -0.642 ± 0.12
E38K | -0.083 ± 0.12
E38Q | 0.171 ± 0.13
E38S | -0.015 ± 0.044
E38D | 0.013 ± 0.069
E38C | -0.242 ± 0.077
E38I | -0.711 ± 0.25
E38F | -0.216 ± 0.091
E38V | -0.222 ± 0.053
E38L | -0.379 ± 0.073
E38A | -0.059 ± 0.069
E38M | -0.222 ± 0.097
R32L | -0.359 ± 0.088
R32P | -0.146 ± 0.087
R32W | -0.631 ± 0.14
R32C | -0.178 ± 0.1
R32V | -0.808 ± 0.14
R32F | -0.683 ± 0.23
R32E | -0.478 ± 0.18
R32M | -0.412 ± 0.23
R32Y | -0.417 ± 0.21

Variant | abundance fitness
R32G | 0.082 ± 0.061
R32I | -0.587 ± 0.35
R32K | -0.018 ± 0.1
R32H | 0.009 ± 0.22
R32N | -0.146 ± 0.1
R32S | -0.466 ± 0.08
R32D | -0.89 ± 0.42
R32Q | -0.279 ± 0.089
R32A | -0.302 ± 0.071
R50Q | -0.012 ± 0.16
R50E | -0.068 ± 0.096
R50A | -0.066 ± 0.082
R50N | -0.242 ± 0.31
R50S | -0.007 ± 0.087
R50L | -0.063 ± 0.062
R50Y | -0.606 ± 0.42
R50V | -0.085 ± 0.1
R50G | 0.04 ± 0.082
R50C | -0.021 ± 0.097
R50M | -0.108 ± 0.17
R50T | -0.002 ± 0.096
R50F | -0.375 ± 0.22
R50K | -0.029 ± 0.16
R50P | -0.916 ± 0.23

Variant | abundance fitness
R50W | -0.664 ± 0.14
L43C | -0.701 ± 0.13
L43A | -0.931 ± 0.24
L43F | -0.645 ± 0.19
L43G | -0.721 ± 0.071
L43E | -0.804 ± 0.16
L43T | -0.674 ± 0.27
L43M | -0.099 ± 0.14
L43I | -0.251 ± 0.16
L43R | -1.01 ± 0.15
L43H | -0.757 ± 0.29
L43N | -0.673 ± 0.32
L43Q | -0.606 ± 0.22
L43P | -0.992 ± 0.4
L43S | -0.865 ± 0.2
L43Y | -0.224 ± 0.15
L43V | -0.81 ± 0.12
Q53H | -0.386 ± 0.34
Q53M | -0.345 ± 0.17
Q53N | 0.005 ± 0.35
Q53G | -0.103 ± 0.065
Q53C | -0.219 ± 0.1
Q53S | 0.074 ± 0.056
Q53T | -0.197 ± 0.12

Variant | abundance fitness
Q53W | -0.225 ± 0.11
Q53F | -0.425 ± 0.29
Q53E | 0.087 ± 0.086
Q53L | -0.78 ± 0.12
Q53P | -0.144 ± 0.053
Q53Y | -0.159 ± 0.096
Q53V | -0.747 ± 0.18
Q53D | -0.241 ± 0.2
Q53A | -0.122 ± 0.056
Q53K | -0.19 ± 0.17
Q53R | -0.092 ± 0.051
E30V | -0.275 ± 0.037
E30L | -0.368 ± 0.043
E30R | -0.184 ± 0.037
E30T | -0.186 ± 0.055
E30N | -0.116 ± 0.13
E30P | -1.17 ± 0.34
E30Y | -0.145 ± 0.1
E30S | -0.222 ± 0.048
E30K | -0.13 ± 0.065
E30W | -0.455 ± 0.052
L46K | -0.051 ± 0.089
L46G | -0.27 ± 0.037
L46Y | -0.162 ± 0.14

Variant | abundance fitness
L46W | -0.237 ± 0.12
L46R | -0.146 ± 0.056
L46F | 0.047 ± 0.095
L46D | -0.43 ± 0.21
L46Q | -0.262 ± 0.13
L46N | -0.767 ± 0.46
L46V | -0.98 ± 0.35
L46M | -0.188 ± 0.13
L46A | 0.023 ± 0.1
L46E | 0.04 ± 0.1
L46T | -0.863 ± 0.18
L46C | -0.075 ± 0.15
L37Y | -0.3 ± 0.12
L37N | -0.363 ± 0.14
L37S | -0.372 ± 0.079
L37Q | -0.256 ± 0.13
L37K | -0.136 ± 0.16
L37D | -0.254 ± 0.12
L37I | -0.062 ± 0.13
L37P | -0.813 ± 0.2
L37V | -0.033 ± 0.06
L37W | -0.799 ± 0.15
L37C | -0.578 ± 0.34
L37H | -0.351 ± 0.12

Variant | abundance fitness
L37F | -0.263 ± 0.099
L37E | -0.481 ± 0.12
L37M | -0.158 ± 0.087
L37A | -0.553 ± 0.1
L37T | -0.326 ± 0.11
G39Y | -0.566 ± 0.43
G39A | -0.56 ± 0.095
G39D | -0.298 ± 0.13
G39N | -0.65 ± 0.23
G39T | -0.892 ± 0.19
G39H | -0.151 ± 0.14
G39P | -0.798 ± 0.31
G39C | -0.536 ± 0.088
G39F | -0.759 ± 0.082
G39Q | -0.853 ± 0.33
G39V | -0.924 ± 0.16
G39M | -0.93 ± 0.41
G39L | -0.89 ± 0.17
G39W | -0.94 ± 0.25
G39E | -0.186 ± 0.089
Y54A | -0.891 ± 0.23
Y54E | -1.19 ± 0.48
Y54K | -0.76 ± 0.21
Y54R | -0.897 ± 0.11

Variant | abundance fitness
Y54P | -1 ± 0.2
Y54Q | -0.783 ± 0.27
Y54M | -0.692 ± 0.23
Y54L | -0.727 ± 0.15
Y54F | -0.118 ± 0.22
Y54I | -0.395 ± 0.21
Y54G | -0.968 ± 0.32
C40Y | -0.284 ± 0.091
C40N | 0.119 ± 0.14
C40L | -0.042 ± 0.065
C40R | -0.138 ± 0.072
C40D | 0.058 ± 0.086
C40S | 0.041 ± 0.03
C40T | 0.07 ± 0.086
C40W | -0.103 ± 0.097
C40G | -0.186 ± 0.051
C40K | -0.202 ± 0.16
C40I | -0.222 ± 0.2
C40A | -0.025 ± 0.065
C40V | 0.002 ± 0.06
C40Q | 0.055 ± 0.1
C40P | -0.446 ± 0.11
C40H | -0.09 ± 0.16
